# From paper PMC8760265
# Molecular target: CDK9 (UniProt P50750)
# Experiment: co-IP with FLAG or HA antibody, immunoblot
# Conditions: reference: HA-TRIM28 wild type; sites S824
substance,measurement,value
TRIM28 (from UniProt Q13263) HA-TRIM28-S824A,binding against the reference,weaker
